Laboratory results reported in US12497460B2, “Anti-MSR1 antibodies and methods of use thereof” (REGENERON PHARMACEUTICALS, INC., priority 2018, dated 2025).

T1: MSR1-mediated Dil-AcLDL uptake in HEK293.Myc.hMSR1 cells (Homo sapiens, UniProt P21757)
T1 construct: expressed in transfected cells; host or cells: HEK293 (lentiviral transduction, hygromycin selection)
T1 sequence (P21757 1-451): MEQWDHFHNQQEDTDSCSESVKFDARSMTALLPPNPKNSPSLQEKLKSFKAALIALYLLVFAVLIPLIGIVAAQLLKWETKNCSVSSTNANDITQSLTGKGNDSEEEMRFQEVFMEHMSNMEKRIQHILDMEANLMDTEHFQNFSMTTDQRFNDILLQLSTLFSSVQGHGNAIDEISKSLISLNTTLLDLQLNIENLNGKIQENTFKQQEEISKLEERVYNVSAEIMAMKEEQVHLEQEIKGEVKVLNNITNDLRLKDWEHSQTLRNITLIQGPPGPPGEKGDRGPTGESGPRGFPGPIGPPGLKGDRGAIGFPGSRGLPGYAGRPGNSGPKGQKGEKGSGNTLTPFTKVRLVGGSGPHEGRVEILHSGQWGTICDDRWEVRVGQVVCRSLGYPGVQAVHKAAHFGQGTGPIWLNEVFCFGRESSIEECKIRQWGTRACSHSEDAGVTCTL

T2: His9-hMSR1 (human MSR1 extracellular domain) (Homo sapiens, UniProt P21757)
T2 construct: human MSR1 extracellular domain expressed with a N-terminal nonahistidine tag; His9 (nonahistidine) (N); purchased R&D Systems 2708-MS
T2 sequence (P21757 77-451 limits assumed): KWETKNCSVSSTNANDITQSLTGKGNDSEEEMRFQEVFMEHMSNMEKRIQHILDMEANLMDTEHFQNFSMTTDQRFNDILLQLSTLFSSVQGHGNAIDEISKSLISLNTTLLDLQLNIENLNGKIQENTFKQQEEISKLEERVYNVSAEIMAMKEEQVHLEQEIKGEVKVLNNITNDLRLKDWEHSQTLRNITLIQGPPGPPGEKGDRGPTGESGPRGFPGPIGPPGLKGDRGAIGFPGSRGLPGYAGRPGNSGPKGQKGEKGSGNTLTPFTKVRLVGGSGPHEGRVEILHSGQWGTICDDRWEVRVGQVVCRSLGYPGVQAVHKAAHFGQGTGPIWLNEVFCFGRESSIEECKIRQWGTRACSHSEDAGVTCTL


Legend:
parental HEK293 cells = experiment: Electrochemiluminescence antibody binding assay, non-specific binding control cells; format: cell-based, human
[1] = biological target: T1, MSR1-mediated Dil-AcLDL uptake in HEK293.Myc.hMSR1 cells; experiment: Ligand uptake assay, Dil-AcLDL; format: cell-based; details: 10 μg/mL Dil-AcLDL; for IC50: read-out: Dil-Acetylated LDL IC50; for Dil-Acetylated LDL % Inhibition: maximum inhibition
Procedure: A bioassay was generated to assess the ability of the exemplary anti-MSR1 antibodies to regulate the uptake of certain MSR1 ligands.
Generation of MSR1-expressing cell lines for assay. […] The resulting cell line, referred to here as “HEK293.Myc.hMSR1”, was selected and maintained in DMEM containing 10% FIBS, NEAA, penicillin/streptomycin, L-glutamine, and 100 μg/mL hygromycin.
Ligand uptake assay. […] After 30 minutes, either oxidized or acetylated low-density lipoprotein (LDL) labeled with 1,1′dioctadecyl-3,3,3′,3′-tetramethylindocarbocyanine perchlorate (referred to as “Dil-OxLDL” or “Dil-AcLDL,” respectively) was added to the cells at a constant concentration of 10 μg/mL. […] Results were analyzed using nonlinear regression (4-parameter logistics) with the Prism 7 program to obtain EC50 and IC50 values. The percentage of inhibition was calculated with the Relative Fluorescent Unit (RFU) values by using the following equation: […]
In the equation, “RFUBaseline” is the fluorescence value from the cells treated with 10 μg/mL ligand without antibodies, “RFUInhibition” is the minimum fluorescence value with for a particular antibody with 10 μg/mL ligand, and “RFUBackground” is the fluorescence value from cells without any ligand or antibodies.

[2] = biological target: T2, His9-hMSR1 (human MSR1 extracellular domain); experiment: Biacore surface plasmon resonance binding kinetics of anti-MSR1 mAbs, antibody-capture format; details: analyte His9-hMSR1, NB = no binding observed; for kd: * = no dissociation observed, kd manually fixed at 1.00E−05; for ka: antibody-capture format; for Kd: calculated from kinetic rates; for t½: dissociative half-life
Procedure: (§1) Binding affinities and kinetic constants of human anti-MSR1 antibodies for different MSR1 reagents were determined by real-time surface plasmon resonance (Biacore 4000). All binding studies were performed in 10 mM HEPES, 150 mM NaCl, 3 mM EDTA, and 0.05% v/v Surfactant Tween-20, pH 7.4 (HBS-ET) running buffer at 25° C. and 37° C.
(§2) The association rate (ka) and dissociation rate (kd) were determined by fitting the real-time binding sensorgrams to a 1:1 binding model with mass transport limitation using Scrubber 2.0c curve-fitting software. Binding dissociation equilibrium constant (KD) and dissociative half-life (t½) were calculated from the kinetic rates as: […]

[3] = biological target: HMM-mfMSR1 (monkey MSR1 extracellular domain); experiment: as above; details: analyte HMM-mfMSR1, NB = no binding observed; for kd: * = no dissociation observed, kd manually fixed at 1.00E−05; for ka: antibody-capture format; for Kd: calculated from kinetic rates; for t½: dissociative half-life
Procedure: as §1, §2

[4] = biological target: T2, His9-hMSR1 (human MSR1 extracellular domain); experiment: Biacore T200 surface plasmon resonance binding kinetics of anti-MSR1 antibody-drug conjugates and parental antibodies; details: 25° C.
Summary of the method: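 Anti-MSR1 mAbs (ADCs with LXR or steroid linker-payloads, and unconjugated parents) captured on anti-human Fcγ surface; His9-tagged human MSR1 extracellular domain as analyte in HBS-ET, pH 7.4, 25° C. ka and kd from 1:1 fit with mass transport limitation; KD and t½ calculated from kinetic rates.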

Sequence of HMM-mfMSR1 (monkey MSR1 extracellular domain) (as listed by the source): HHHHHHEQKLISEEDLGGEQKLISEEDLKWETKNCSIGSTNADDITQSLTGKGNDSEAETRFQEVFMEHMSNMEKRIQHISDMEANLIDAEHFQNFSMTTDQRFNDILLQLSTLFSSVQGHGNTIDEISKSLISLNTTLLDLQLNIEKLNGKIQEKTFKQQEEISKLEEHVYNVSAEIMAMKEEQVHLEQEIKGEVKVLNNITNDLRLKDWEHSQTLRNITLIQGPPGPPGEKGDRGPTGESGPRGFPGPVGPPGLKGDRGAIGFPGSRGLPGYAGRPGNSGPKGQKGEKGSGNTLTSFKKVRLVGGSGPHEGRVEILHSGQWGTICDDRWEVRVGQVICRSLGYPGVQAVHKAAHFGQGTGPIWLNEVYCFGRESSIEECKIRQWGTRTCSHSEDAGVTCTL

| Molecule | Ratio of 11 nM Antibody Binding Signal (RLU) to isotype control, HEK293 (parental HEK293 cells) | IC50 [1] [nM] | Dil-Acetylated LDL % Inhibition [1] | kd ([2]; 25° C.) [s⁻¹] | ka ([2]; 25° C.) [M⁻¹ s⁻¹] | Kd ([2]; 25° C.) [nM] | t½ ([2]; 25° C.) [h] | kd ([2]; 37° C.) [s⁻¹] | ka ([2]; 37° C.) [M⁻¹ s⁻¹] | Kd ([2]; 37° C.) [nM] | t½ ([2]; 37° C.) [h] | kd ([3]; 25° C.) [s⁻¹] | ka ([3]; 25° C.) [M⁻¹ s⁻¹] | Kd ([3]; 25° C.) [nM] | t½ ([3]; 25° C.) [h] | kd ([3]; 37° C.) | ka ([3]; 37° C.) [M⁻¹ s⁻¹] | Kd ([3]; 37° C.) [nM] | t½ ([3]; 37° C.) [h] | further results |
| --- | --- | --- | --- | --- | --- | --- | --- | --- | --- | --- | --- | --- | --- | --- | --- | --- | --- | --- | --- | --- |
| H1H21227N-N297Q: "modified versions of 21227N (H1H21227N-N297Q and H1H21227N-N297D)"; anti-MSR1 antibody "with a N297Q single point mutation" (antibody, V domains shown) VH: QVQLVQSGAEVKKPGASVKVSCKVSGYTLTELSIHWVRQVPGKGLEWMGGFDPEEGETIFAQEFRDRVTLTEDTSPDTAYMELSSLKSEDAAVYYCTTPRYCNNGICYDYWGQGTLVTVSS VL: DIQMTQSPSSLSASVGDRVTITCRASQSISNYLNWYQQKPGKAPKLLIYTASSLQSGVPSRFSGSGSGTDFTLTISSLQTEDFATYYCQQSYSNFPITFGQGTRLEIKR | 1 | 2.4 | 65% | 4.89e-05 | 1.23e+06 | 0.0397 | 3.93 | 1.23e-05 | 2.67e+06 | 0.0046 | 15.7 | 7.51e-05 | 1.36e+06 | 0.0553 | 2.57 | 1.08e-05 s⁻¹ | 2.74e+06 | 0.00395 | 17.82 | – |
| H1H21227N: "anti-MSR1 antibodies ... (21227N, 21231N, 21234N) were produced with the original human Fcγ portion"; "H1H" = human IgG1 Fc (antibody, V domains shown, human IgG1 Fc, "anti-MSR1 antibodies ; (21227N, 21231N, 21234N) were produced with the original human Fcγ portion"; "H1H" = human IgG1 Fc) VH: QVQLVQSGAEVKKPGASVKVSCKVSGYTLTELSIHWVRQVPGKGLEWMGGFDPEEGETIFAQEFRDRVTLTEDTSPDTAYMELSSLKSEDAAVYYCTTPRYCNNGICYDYWGQGTLVTVSS VL: DIQMTQSPSSLSASVGDRVTITCRASQSISNYLNWYQQKPGKAPKLLIYTASSLQSGVPSRFSGSGSGTDFTLTISSLQTEDFATYYCQQSYSNFPITFGQGTRLEIKR | 1 | 2.1 | 65% | 1.44e-05 | 1.2e+06 | 0.012 | 13.3 | 1.85e-05 | 2.56e+06 | 0.00724 | 10.4 | 4.41e-05 | 1.27e+06 | 0.0348 | 4.37 | 1.00E−05* s^−1 | 2.76e+06 | 0.00362 | 19.25 | – |
| H1H27734P-N297Q: one of "Twelve anti-MSR1 antibodies"; "made with an N297Q single point mutation in human Fcγ portion" (antibody, V domains shown) VH: EVQLVESRGGLVQPGGSLRLSCAASGFTFSSYAMSWVRQAPGKGLEWVSAISGSGGSTFYADSVKGRFTISRDNSKNTVYLQMNSLRAEDTAVYYCAKALVLRFLEWLGDYWGQGTLVTVSS VL: DIQMTQSPSTLSASVGDRVTITCRASQSISSWLAWFQQKPGKAPKLLIYKASSLESGVPSRFSGSGSGTEFTLTISSLQPDDFATYYCQQYKSYWTFGQGTKVEIKR | 14 | – | no inhibition | 0.00111 | 420000 | – | – | 0.0019 | 1.09e+06 | – | – | 0.00291 | 423000 | – | – | 0.0032 s⁻¹ | 949000 | – | – | Dil-Acetylated LDL IC50 [1]: no inhibition; maximum inhibition of Dil-AcLDL uptake [1]: no inhibition; ka ([4]; Table 19, antibody-LXR ADCs and unconjugated antibodies): 77200 M⁻¹ s⁻¹; kd ([4]; Table 19, * = no dissociation observed, kd manually fixed at 1.00E−05): 0.000596 s⁻¹ |
